Assay [1] deals with T1, human LILRA1 (human, UniProt O75019 17-461, limits assumed).
T1 construct: Bought protein; also called hLILRA1
In words: ELISA, antibody at 200 nM, OD450; + = 2-fold over ISO. A general note: In an ELISA, binding on a coated surface is turned into a signal by an enzyme label.

The target in assay [2] is T2, human LILRA3 (human, UniProt Q8N6C8 24-439).
T2 construct: Bought protein; also called hLILRA3
The description is as above.

Assay [3] deals with T3, human LILRA5 (human, UniProt A6NI73 42-268, limits assumed).
T3 construct: Bought protein; also called hLILRA5
T3 sequence (A6NI73 42-268 limits assumed): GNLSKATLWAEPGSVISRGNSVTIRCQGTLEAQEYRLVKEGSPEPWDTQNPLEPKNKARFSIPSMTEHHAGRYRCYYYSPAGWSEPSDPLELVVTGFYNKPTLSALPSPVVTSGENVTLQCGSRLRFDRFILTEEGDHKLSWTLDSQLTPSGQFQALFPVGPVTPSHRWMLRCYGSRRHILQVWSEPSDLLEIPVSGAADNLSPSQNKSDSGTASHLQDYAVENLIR
The description is as above.

Assay [4] deals with T4, human LILRB4 (human, UniProt Q8NHJ6 22-259).
T4 construct: Bought protein; also called hLILRB4
Described as above.

Assay [5] concerns the target T5, human LILRA4 (human, UniProt P59901 24-446).
T5 construct: Bought protein; also called hLILRA4
The description is as above.
T5 sequence (P59901 24-446 limits assumed): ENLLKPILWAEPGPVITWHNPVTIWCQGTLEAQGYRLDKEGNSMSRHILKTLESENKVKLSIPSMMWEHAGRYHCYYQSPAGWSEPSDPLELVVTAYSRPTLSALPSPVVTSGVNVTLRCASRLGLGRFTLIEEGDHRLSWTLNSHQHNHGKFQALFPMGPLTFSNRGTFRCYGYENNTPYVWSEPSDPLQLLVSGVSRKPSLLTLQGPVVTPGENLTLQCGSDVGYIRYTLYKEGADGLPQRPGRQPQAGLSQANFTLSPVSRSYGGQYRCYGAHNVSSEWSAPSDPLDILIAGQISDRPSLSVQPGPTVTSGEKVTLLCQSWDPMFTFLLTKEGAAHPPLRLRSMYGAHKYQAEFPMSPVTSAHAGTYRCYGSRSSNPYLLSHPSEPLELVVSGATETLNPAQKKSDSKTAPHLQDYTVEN

For assay [6], the target named is T6, human LILRB5 (human, UniProt O75023 24-458).
T6 construct: Bought protein; also called hLILRB5
T6 sequence (O75023 24-458 limits assumed): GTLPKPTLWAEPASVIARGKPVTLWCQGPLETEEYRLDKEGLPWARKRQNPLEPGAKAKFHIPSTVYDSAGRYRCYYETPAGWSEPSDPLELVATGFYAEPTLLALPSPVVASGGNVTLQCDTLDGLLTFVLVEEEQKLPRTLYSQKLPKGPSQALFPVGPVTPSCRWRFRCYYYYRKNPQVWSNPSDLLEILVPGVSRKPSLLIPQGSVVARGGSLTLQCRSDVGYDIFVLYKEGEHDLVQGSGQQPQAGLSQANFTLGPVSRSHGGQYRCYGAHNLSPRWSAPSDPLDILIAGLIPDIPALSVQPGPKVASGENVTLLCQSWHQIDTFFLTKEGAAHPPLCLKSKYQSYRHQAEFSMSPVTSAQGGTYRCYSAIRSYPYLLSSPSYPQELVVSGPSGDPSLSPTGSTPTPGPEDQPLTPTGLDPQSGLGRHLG
Described as above.

The target in assay [7] is T7, human LILRB1 protein (Octet analyte) (human, UniProt Q8NHL6 24-458, limits assumed).
T7 construct: The construct used in the Octet assay is not described; also called hLILRB1
T7 sequence (Q8NHL6 24-458 limits assumed): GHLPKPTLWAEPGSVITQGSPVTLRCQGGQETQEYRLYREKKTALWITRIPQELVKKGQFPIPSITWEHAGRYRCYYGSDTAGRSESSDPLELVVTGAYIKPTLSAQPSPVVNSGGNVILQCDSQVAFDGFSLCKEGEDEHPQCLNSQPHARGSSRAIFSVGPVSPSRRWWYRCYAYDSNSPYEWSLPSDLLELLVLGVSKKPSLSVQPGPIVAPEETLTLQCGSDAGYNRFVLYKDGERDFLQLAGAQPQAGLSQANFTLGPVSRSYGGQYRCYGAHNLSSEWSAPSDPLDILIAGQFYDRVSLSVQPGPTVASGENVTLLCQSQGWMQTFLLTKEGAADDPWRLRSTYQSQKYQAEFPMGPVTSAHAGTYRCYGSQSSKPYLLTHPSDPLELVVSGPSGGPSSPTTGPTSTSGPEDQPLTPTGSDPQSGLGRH
Description: Octet (BLI), off rate ranking, kdis. (In general: Biolayer interferometry detects binding as a change in optical thickness at a sensor tip.)

Assay [8] deals with T8, human LILRB2 protein (Octet analyte) (human, UniProt Q8N423 22-460, limits assumed).
T8 construct: The construct used in the Octet assay is not described; also called hLILRB2
T8 sequence (Q8N423 22-460 limits assumed): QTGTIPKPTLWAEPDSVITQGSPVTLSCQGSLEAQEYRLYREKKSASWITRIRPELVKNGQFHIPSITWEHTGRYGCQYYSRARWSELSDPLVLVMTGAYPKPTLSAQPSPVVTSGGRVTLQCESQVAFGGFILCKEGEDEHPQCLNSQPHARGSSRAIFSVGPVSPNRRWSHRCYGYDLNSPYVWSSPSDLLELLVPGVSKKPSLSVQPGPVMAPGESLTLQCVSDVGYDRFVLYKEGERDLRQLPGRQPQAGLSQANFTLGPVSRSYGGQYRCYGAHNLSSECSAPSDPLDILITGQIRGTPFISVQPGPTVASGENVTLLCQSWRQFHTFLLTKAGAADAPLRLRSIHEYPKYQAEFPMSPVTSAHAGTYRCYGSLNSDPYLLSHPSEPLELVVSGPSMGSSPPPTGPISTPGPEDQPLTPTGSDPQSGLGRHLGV
In words: Octet (BLI), off rate ranking, kdis.

Assay [9] deals with T9, human LILRB1 expressed on CHOK1 cells (human, UniProt Q8NHL6 24-650).
T9 construct: whole, on cells; also called CHOK1-hLILRB1; CHOK1-LILRB1
T9 sequence (Q8NHL6 24-650): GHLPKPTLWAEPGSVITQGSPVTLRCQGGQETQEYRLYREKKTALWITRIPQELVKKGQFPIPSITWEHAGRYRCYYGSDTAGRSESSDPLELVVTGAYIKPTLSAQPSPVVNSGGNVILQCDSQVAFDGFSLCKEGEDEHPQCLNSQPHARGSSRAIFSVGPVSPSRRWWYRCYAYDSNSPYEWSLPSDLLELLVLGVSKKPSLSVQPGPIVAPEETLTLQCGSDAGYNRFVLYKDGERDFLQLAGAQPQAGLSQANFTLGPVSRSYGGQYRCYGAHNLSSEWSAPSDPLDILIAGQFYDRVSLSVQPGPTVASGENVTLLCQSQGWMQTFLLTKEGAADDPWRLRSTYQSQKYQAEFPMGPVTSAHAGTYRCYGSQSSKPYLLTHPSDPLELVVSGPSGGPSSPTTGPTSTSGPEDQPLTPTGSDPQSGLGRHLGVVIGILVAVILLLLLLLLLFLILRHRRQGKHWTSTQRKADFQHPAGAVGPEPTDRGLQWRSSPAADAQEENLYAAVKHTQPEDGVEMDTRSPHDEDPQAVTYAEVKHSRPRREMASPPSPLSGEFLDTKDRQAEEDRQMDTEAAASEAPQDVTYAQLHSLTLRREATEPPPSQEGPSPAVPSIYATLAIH
Description: flow cytometry (FACS) binding to CHOK1-hLILRB1 cells. (A flow cytometer gives signals particle by particle.)

Assay [10] addresses T10, human LILRB2 expressed on CHOK1 cells (human, UniProt Q8N423 22-597).
T10 construct: whole, on cells; also called CHOK1-hLILRB2; CHOK1-LILRB2
Description: flow cytometry (FACS) binding to CHOK1-hLILRB2 cells.

In assay [11] the target is T9, human LILRB1 expressed on CHOK1 cells. Description: cell based RBA on CHOK1-hLILRB1 cells, flow cytometry; competitor HLA-G.
Assay [12] deals with T10, human LILRB2 expressed on CHOK1 cells. Description: cell based RBA on CHOK1-hLILRB2 cells, flow cytometry; competitor HLA-G.
Assay [13] addresses T11, human LILRA4 (human, UniProt P59901 24-446).
T11 construct: bought protein coated for ELISA; also called hLILRA4
In words: ELISA, OD450, antibody at 200 nM; + = 2-fold over ISO.
T11 sequence (P59901 24-446 limits assumed): as the sequence (P59901 24-446 limits assumed) above

Assay [14] addresses T12, human LILRB4 (human, UniProt Q8NHJ6 22-259).
T12 construct: bought protein coated for ELISA; also called hLILRB4
The description is as above.

Assay [15] addresses T13, human LILRA2 on CHOK1-human LILRA2 cell line (human, UniProt Q8N149 24-483).
T13 construct: whole, on cells
In words: flow cytometry on CHOK1-human LILRA2 cell line (FIG. 2A).

The target of assay [16] is T14, human LILRA2 (human, UniProt Q8N149 24-449).
T14 construct: bought protein coated for ELISA; also called hLILRA2
Description: ELISA, OD450, antibody at 200 nM; + = 2-fold over ISO.
T14 sequence (Q8N149 24-449 limits assumed): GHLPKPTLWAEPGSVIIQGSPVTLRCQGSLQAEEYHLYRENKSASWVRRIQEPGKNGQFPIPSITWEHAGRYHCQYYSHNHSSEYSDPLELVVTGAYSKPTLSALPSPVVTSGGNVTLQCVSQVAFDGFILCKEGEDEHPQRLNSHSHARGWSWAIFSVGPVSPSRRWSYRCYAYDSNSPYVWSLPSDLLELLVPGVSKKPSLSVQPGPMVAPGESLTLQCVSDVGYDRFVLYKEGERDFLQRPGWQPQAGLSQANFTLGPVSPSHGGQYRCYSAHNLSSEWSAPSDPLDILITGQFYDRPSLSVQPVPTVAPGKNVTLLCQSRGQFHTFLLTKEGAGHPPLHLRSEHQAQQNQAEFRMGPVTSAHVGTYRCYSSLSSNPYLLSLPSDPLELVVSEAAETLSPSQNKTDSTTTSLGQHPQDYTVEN

Assay [17] deals with T15, human LILRB3 (human, UniProt O75022 24-443).
T15 construct: bought protein coated for ELISA; also called hLILRB3
The description is as above.

In assay [18] the target is T16, human LILRA2 (human, UniProt Q8N149 24-449).
T16 construct: Bought protein; also called hLILRA2
Description: ELISA, antibody at 200 nM, OD450; + = 2-fold over ISO.
T16 sequence (Q8N149 24-449 limits assumed): as above

As a reminder, the koff is a measure of how fast the partners let go of each other. Read a low koff as slow dissociation. Usually EC50 stands for the concentration giving half of the maximal effect. Low values mean a more potent agent, high ones a less potent agent.

T10 sequence (Q8N423 22-597): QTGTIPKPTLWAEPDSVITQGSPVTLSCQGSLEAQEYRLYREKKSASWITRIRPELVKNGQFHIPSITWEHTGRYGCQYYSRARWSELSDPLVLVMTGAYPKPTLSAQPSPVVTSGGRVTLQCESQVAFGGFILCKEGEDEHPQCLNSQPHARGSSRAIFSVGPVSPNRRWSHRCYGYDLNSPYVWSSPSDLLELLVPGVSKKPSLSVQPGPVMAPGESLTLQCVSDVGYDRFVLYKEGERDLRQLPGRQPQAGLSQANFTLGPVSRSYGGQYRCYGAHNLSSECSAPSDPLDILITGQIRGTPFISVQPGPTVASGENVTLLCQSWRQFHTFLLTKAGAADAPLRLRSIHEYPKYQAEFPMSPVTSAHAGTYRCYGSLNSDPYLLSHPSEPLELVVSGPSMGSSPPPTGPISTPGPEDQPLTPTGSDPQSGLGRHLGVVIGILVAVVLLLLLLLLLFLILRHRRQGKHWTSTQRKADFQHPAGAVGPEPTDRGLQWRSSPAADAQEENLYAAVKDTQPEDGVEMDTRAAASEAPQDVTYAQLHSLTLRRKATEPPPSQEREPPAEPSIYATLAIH

B1: LK-RB2-8 (antibody, human IgG4 S228P, kappa, V domains shown)
VH: QIQLVQSGPELKKPGETVKISCKASGYSFASYGMGWVKQAPGKGLKWLGWINTHSGVPTYADDFKGRFAFSLETSASTAYLQINNLKNEDTATYFCAHYGRPWFPYWGQGTLVTVSA
VL: DIQMTQSPASLSASVGETVTITCRTSENIYSYLAWYQQKQGKSPQLLVYNAKSLAEGVPSRFSGSGSGTQFSLRINSLQPEDFGTYYCQQHYETPLTFGAGTKLELKR
B1: the binding result in assay [1], in assay [2], in assay [3] and in [4] was “binds” throughout.

B2: LK-RB2-16 (antibody, human IgG4 S228P, kappa, V domains shown)
VH: QIQLVQSGPELKKPGETVKISCKASGYTFTTYGMGWVKQAPEKGLKWMGWINTNSGAPTYGDDFKGRFAFSLETSASTAYLQINNLKNEDTATYFCAHYGRPWFAYWGQGTLVTVSA
VL: DIQMTQSPASLSASVGETVTITCRASENIYSYLAWYHQKQGESPQLLVYNAKTLAEGVPSRFSGSGSGTQFSLKINSLQPEDFGSYYCQHHYNIPLTFGAGTKLELKR
B2: the binding result in [5] and in assay [6] was “binds” in each case.

B3: LK-RBi-05 (bispecific antibody, human IgG4 S228P, kappa)
heavy: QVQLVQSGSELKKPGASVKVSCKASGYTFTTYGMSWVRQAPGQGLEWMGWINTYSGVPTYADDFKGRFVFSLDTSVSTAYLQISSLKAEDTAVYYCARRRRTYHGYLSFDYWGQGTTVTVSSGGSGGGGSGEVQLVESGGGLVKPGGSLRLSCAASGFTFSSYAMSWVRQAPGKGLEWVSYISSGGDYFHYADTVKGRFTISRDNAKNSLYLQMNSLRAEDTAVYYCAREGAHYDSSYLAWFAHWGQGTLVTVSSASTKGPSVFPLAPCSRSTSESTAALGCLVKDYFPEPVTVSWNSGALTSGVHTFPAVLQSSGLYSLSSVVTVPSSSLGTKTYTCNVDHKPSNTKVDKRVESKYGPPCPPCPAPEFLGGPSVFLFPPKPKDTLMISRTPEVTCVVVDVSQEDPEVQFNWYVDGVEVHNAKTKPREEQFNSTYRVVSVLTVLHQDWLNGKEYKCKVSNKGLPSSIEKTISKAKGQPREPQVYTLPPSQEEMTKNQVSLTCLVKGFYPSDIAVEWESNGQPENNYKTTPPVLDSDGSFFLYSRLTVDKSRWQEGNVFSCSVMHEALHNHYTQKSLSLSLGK
light: DIQMTQSPSSLSASVGDRVTITCETSENIYGALNWYQQKPGKAPKLLIYGATNLAEGVPSRFSGSGSGTDFTFTISSLQPEDIATYYCQNVLNTPWTFGGGTKLEIKGGSGGGGSGDIQMTQSPSSVSASVGDRVTITCRASENIYSNLAWYQQKPGKAPKLLIYAATNLAEGVPSRFSGSGSGTDYTLTISSLQPEDFATYYCQQFWDNPLTFGQGTKLEIKRTVAAPSVFIFPPSDEQLKSGTASVVCLLNNFYPREAKVQWKVDNALQSGNSQESVTEQDSKDSTYSLSSTLTLSKADYEKHKVYACEVTHQGLSSPVTKSFNRGEC
Take B3: the off-rate (koff) in assay [7] was 0.00021 s⁻¹; in [8], 8.24e-06 s⁻¹. The EC50 in [9] came to 2.32 nM; in [10], 0.73 nM; in [11], 4.2 µg/mL; in [12], 0.43 µg/mL.

B4: LK-RB1-1 (antibody, human IgG4 S228P, kappa, V domains shown)
VH: QIQLVQSGPELKKPGETVKISCKASGYSFTNFGMSWVKQAPGKALKWMGWINTYSGVPTYADDFKGRFAFSLETSANTAYLQINNLKNEDSATYFCARRRRTFDGYLCFDYWGQGATLTVSS
VL: QLVLTQSSSASFSLGASAKLTCTLSSQHSTYSIDWYQQQPLKPPKYVMELKTDGSHRTGDGIPDRFSGSSSGADRYLSISNIQPEDEAIYICGVGDTIKEQFVYVFGGGTKVTVLR
notes: anti-LILRB1 antibody
Consider B4, for which the binding result in [13] and in assay [14] was “binds” in each case.

B5: LK-RBi-08 (bispecific antibody, human IgG4 S228P, kappa)
heavy: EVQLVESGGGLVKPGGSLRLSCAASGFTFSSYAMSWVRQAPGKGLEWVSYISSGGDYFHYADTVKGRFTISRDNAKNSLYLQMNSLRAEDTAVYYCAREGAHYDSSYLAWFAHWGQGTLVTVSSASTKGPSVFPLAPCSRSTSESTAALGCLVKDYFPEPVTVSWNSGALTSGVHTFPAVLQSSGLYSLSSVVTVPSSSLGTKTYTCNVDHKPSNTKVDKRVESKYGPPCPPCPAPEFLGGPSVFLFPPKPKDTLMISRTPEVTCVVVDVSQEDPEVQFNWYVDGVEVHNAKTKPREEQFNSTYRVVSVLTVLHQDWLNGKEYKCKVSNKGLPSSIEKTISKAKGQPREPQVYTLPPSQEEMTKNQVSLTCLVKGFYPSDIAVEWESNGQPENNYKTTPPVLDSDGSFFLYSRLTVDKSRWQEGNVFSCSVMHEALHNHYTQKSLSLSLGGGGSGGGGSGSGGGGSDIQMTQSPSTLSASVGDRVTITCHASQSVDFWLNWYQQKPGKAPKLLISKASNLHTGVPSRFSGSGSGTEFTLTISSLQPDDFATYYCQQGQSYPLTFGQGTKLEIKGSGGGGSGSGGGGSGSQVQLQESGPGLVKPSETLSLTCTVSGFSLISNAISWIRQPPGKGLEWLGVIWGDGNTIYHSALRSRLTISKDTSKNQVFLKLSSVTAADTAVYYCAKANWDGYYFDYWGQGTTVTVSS
light: DIQMTQSPSSVSASVGDRVTITCRASENIYSNLAWYQQKPGKAPKLLIYAATNLAEGVPSRFSGSGSGTDYTLTISSLQPEDFATYYCQQFWDNPLTFGQGTKLEIKRTVAAPSVFIFPPSDEQLKSGTASVVCLLNNFYPREAKVQWKVDNALQSGNSQESVTEQDSKDSTYSLSSTLTLSKADYEKHKVYACEVTHQGLSSPVTKSFNRGEC
Regarding B5, the koff was 0.000166 s⁻¹ in assay [7] and 5.68e-05 s⁻¹ in [8]. Besides, the concentration giving a half-maximal response (EC50) in assay [9] amounted to 2.66 nM; in [10], 0.37 nM; in assay [11], 6.03 µg/mL; in assay [12], 0.28 µg/mL.

B6: hz73D1.v1 (antibody, human IgG4 S228P, kappa, V domains shown)
VH: QVQLVQSGAEVKKPGASVKVSCKASGYTFTDYYINWVRQAPGQGLEWMGNVNPNDGGTTYNQKFKGRVTMTTDTSTSTAYMELRSLRSDDTAVYYCARREIYFYGTIYYYAMDYWGQGTLVTVSS
VL: DIQLTQSPSFLSASVGDRVTITCRASESVDYYGNSFMYWYQQKPGKAPKLLIYFASNLESGVPSRFSGSGSGTEFTLTISSLQPEDFATYYCQQNNEDPWTFGGGTKVEIKR
Consider B6, for which, in assay [15], the binding result was “no binding”.

B7: LK-RB1-5 (antibody, human IgG4 S228P, kappa, V domains shown)
VH: QVQLQQPGAELVKPGASVKLSCKASGYTFTDFWIHWVKQRPGQGLEWIGMIHPNSGSTNFNEKFRAKATLTVDKSSSTAYMRLSSLTSEDSAVYYCARSGDGYSNPMDYWGQGTSVTVSS
VL: QIVLSQSPAILSASPGEKVTLTCRASSSVSYMHWYQQKPGSSPKPWIYATSNLASGVPVRFSGSGSGTSYSLTISRMQTEDAATYYCQQWRRSPYTFGGGTKLEIKR
notes: anti-LILRB1 antibody
Turning to B7, the binding result in assay [16] and in assay [17] was “binds” throughout.

B8: LK-RB2-10 (antibody, human IgG4 S228P, kappa, V domains shown)
VH: EVMLVESGGDLVKPGGSLKLSCAASGFTFSANTVSWLRRTPERRLEWVATISGGSDNTYCPDSVKGRFTISRDNARDTLYLQMSSLTSEDTALYFCARHYYDGPNWYFDVWGPGTTVTVSS
VL: DIVMTQSQKFMSSTGGDRVTITCKASQNVDTAVAWYQQKPGQSPKLLIYSASNRYIGVPDRFKGSGSGTDFSLTITNIQSEDLAEYFCQQYSSYPLTFGAGTKLELKR
As for B8, the binding result in assay [18] is recorded as “binds”.

Source of the values: patent US20260234247A1 (published 2026).
